Amyloid nucleation score data for 140 substances are collected here from the supplement of paper PMC12042874.

± gives the uncertainty stated by the source.

A short description of the data set: amyloid nucleation score (Sup35N fusion, yeast selection) (log enrichment); library NNK2; higher = more nucleation; inactive = no reads after selection. In short, it runs like this: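 Nucleation score: DiMSum log enrichment of output over input reads, centred on the mode score of non-aggregating sequences. Only sequences with at least 100 input reads were kept. Reads came from Illumina sequencing of plasmid inserts before and after 7 days of growth at 30°C without adenine and uracil, in psi-negative yeast expressing Sup35N fused to peptides of 20 random codons after 24 hours of induction with 100 μM copper sulfate.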
Consider PKRFVLGY, for which the amyloid nucleation score was -1.55 ± 0.62.
The result for CHHGRYIQRVGYRLVPSAFQ reads 0.098 ± 1.
As for NQLRVLMTIFWPGMLNTPAV, the figure is 0.622 ± 0.31; as for YLLMTKCVTVAERMGIMISC, -0.95 ± 1.
As for DCSSVISKSSLIAVLCFHTN, the figure is 5.14 ± 0.058; as for FLMFQNGCFLNDILVLRNAR, -0.472 ± 0.26; as for VVSVCLLGHNDKVLSYAQLC, 0.071 ± 0.51.
As for TWRLACRFLL, the amyloid nucleation score was -0.12 ± 0.56.
With NTITIMHSDEYVMRVSYICQ, the amyloid nucleation score was determined as 1.87 ± 0.2.
As for SNGLGLQCGIRGKVFNELLS, the figure is -0.674 ± 0.42; as for RSLVDLMRGFDIV, 5.62 ± 0.062.
In turn, LSHKAEYLCVFSWACRIMGL gave an amyloid nucleation score of 0.155 ± 0.42.
For FEYNRF, the amyloid nucleation score worked out at 0.691 ± 0.8.
In the case of SVSVYTASS, the amyloid nucleation score result is “inactive”.
In the case of TSLSVVSGFLAFSGSPHSGT, the amyloid nucleation score was 4.39 ± 0.05.
The substance CTRRRM gave an amyloid nucleation score of 1.63 ± 0.15.
The result for HKLFHLDSVQVYKQYGKEAI reads 1.16 ± 0.18.
The result for AGKFYAGRHNSD reads “inactive”; that for GYSYTLRDRCESRLTLRSDV, 0.382 ± 0.37.
In turn, FSEYWVLSELVMVNKGVIWM showed an amyloid nucleation score of -0.865 ± 0.36.
As for WLLGMYVIRGRQSYNSKDVR, the figure is 3.38 ± 0.054; as for SYGIAWTIMT, -0.701 ± 0.45; as for EKHWSFFTGMSVSHRLFRQN, “inactive”.
As for SPHDVGNSIVIMGFRMWLN, the figure is 0.082 ± 0.44; as for YKAAIGFCINQCLRHHVTKR, “inactive”.
Turning to FLVYYINFIAAKCRPKSNLR, the amyloid nucleation score result is “inactive”.
As for SVVVNPCLLA, the figure is -0.623 ± 1; as for YMIYCFITVGCFISTLHYCG, 1.68 ± 0.15; as for GSRYN, 0.634 ± 0.54.
As for GLYVLYDNINWDERTRALSG, the figure is -0.728 ± 0.48.
The result for GFQFLIGLSHLNGYLITPRY reads 3.42 ± 0.059; that for FMRMGTFYSDAVCMLYVSKR, 1.28 ± 0.23.
Take NCVHRDNWE: the amyloid nucleation score entry was “inactive”.
As for YIGVIT, the figure is 5.38 ± 0.1.
The result for LVVSIIRGYLFPCGDPIFLW reads “inactive”; that for RQRVMHAHHCLLYLMVKHFI, -0.675 ± 1.1.
The result for MYKGLISLNCVTSGTRSG reads -1.07 ± 1.1; that for INDSEVMRICLPVGFGHLEG, 2.45 ± 0.077; that for DADIRQ, 0.764 ± 0.47.
Substance MLRHSANMIKMLKHTTTND registered an amyloid nucleation score of 0.004 ± 0.45.
The result for SSYLMTYC reads -0.104 ± 0.35; that for RVGTLKTISFHSNLNSNKIR, -0.614 ± 0.33.
As for GFICPFVQLCVFRSRHRFEV, the figure is 0.676 ± 0.8; as for ETHIITCLRYRRRMARPHRY, “inactive”; as for EDTMFHNFQWSKAYLCYYWF, -0.294 ± 1.1.
The result for DKYFLLAYGVWGSLRFLTLC reads -0.288 ± 1; that for TLWHARTVKRDKWSSYGVGR, 1.83 ± 0.12; that for SDRGLRACQCVCWDFDSISM, 6.212 ± 0.046.
For ESPTVCPANF, the amyloid nucleation score was -0.248 ± 0.65.
DLYSSV showed an amyloid nucleation score of 0.75 ± 0.41.
The result for RICVKLKVDSGVKMHQTTAG reads 7.952 ± 0.034; that for ETMIHTPQELYVMYSPLTQQ, 6.263 ± 0.051.
As for NFGIKWIVFLKL, the figure is -0.861 ± 0.28; as for MFSNQADFDTNLVSLYDKTW, -0.825 ± 0.4; as for GSSVDGADMIGTLK, 1.46 ± 0.28.
As for FLSSIGHLF, the figure is 3.89 ± 0.12; as for LVYRGLESQPAMRMWHTSST, -0.207 ± 0.63.
PLVTCHDDEVQGMKFVSFFI displayed an amyloid nucleation score of -0.451 ± 0.76.
On to SSASLGVAV, for which the amyloid nucleation score was -0.517 ± 0.76.
Substance MFDLQVRTWFWAF returned an amyloid nucleation score of 3.03 ± 0.11.
In turn, CSVVGWE came in with an amyloid nucleation score of 0.671 ± 0.66.
The result for LELVCRPISMSGWSGYHTCR reads 0.983 ± 0.41; that for KMDTRSRLKQWKRFFIHIPK, -0.92 ± 0.49.
In turn, ELTTIG gave an amyloid nucleation score of 1.62 ± 0.28.
TRFILYLGCDE showed an amyloid nucleation score of -1.25 ± 0.54.
Consider YVVGDMTFWS, for which the amyloid nucleation score is -0.297 ± 1.1.
The result for IHLQIWAFFMLRIPPGRNKT reads -0.636 ± 0.76; that for FFCGMRPYVLVNCLCVFREN, 6.374 ± 0.029; that for GSGGWLAGHKTVK, 0.174 ± 1.
The result for WLTEVY reads -0.587 ± 0.79; that for SRGSYIPSPLRHSFSVLWRF, -0.785 ± 0.63; that for STMAGTLW, 0.051 ± 0.4.
As for FHEDRERGTIFDEFMIFRN, the figure is -0.945 ± 0.76; as for SSADMQRY, -0.383 ± 0.48; as for CESENKQYKNRLEIP, -2.05 ± 0.54.
As to DREVSRVGLD, the amyloid nucleation score came to 1.29 ± 0.34.
Substance VNYSYVATSYRLVAILSNVW came in with an amyloid nucleation score of -1.36 ± 0.62.
As for VMFWLPPTSGNSWSDCTHKI, the entry is “inactive”; as for VRIYTHWTRSYRPKFRSTWT, 0.641 ± 0.74; as for CVGGWWPRQRLFCIWFIIAV, 1.72 ± 0.31.
As for NFKECNLDCKSHLRNVWLRQ, the entry is “inactive”.
As for FHPVWSLRKLFDCPDWTLAR, the figure is 1.23 ± 0.12; as for LTPYEYCVYDCFLSLESVLF, “inactive”; as for IIRPVFILNLPYLFRCVG, 0.465 ± 0.28.
With RLLAGIFLEEKFYPRPSDIL, the amyloid nucleation score was 3.69 ± 0.13.
As for FLDAFFFGWDVVVRVYSSAP, the figure is -0.153 ± 1.1; as for QQYSADLLRGYPCMSYVPVG, -0.091 ± 0.26; as for MKKWWPVICFGWSQVSFRVE, 3.21 ± 0.16.
The result for KGFNKY reads -0.911 ± 0.43.
As for CGRSRKRCIRASRSGSLNMC, the figure is 0.293 ± 0.53; as for GEGVSIMYRWHL, 1.21 ± 0.1; as for NYVNICFNLKFQVRHST, 4.41 ± 0.089.
Substance DLYRYNMLKDVV displayed an amyloid nucleation score of 4.403 ± 0.037.
As for GIRWQVATDSPRLSGYPLCT, the figure is 3.46 ± 0.083; as for SYDPGITSSWMVRIRRVRMC, -0.001 ± 0.49.
PLLSVVYTNLRSSDGRVV gave an amyloid nucleation score of 1.54 ± 0.31.
As for CFLWHAT, the figure is 0.451 ± 0.41; as for SMDGSQDCTTKLNWSFHSVF, 3.88 ± 0.066.
With TVGGNQTLSKLFWSFQGMFW, the amyloid nucleation score result was “inactive”.
With GNRFNRRLWSQATILEF, the amyloid nucleation score is -0.166 ± 0.76.
The substance DTVALCNWLMRLESFSFAGQ yielded an amyloid nucleation score of 1.83 ± 0.19.
The result for GAMNCRVSSKTRWCDTHMVP reads 1.53 ± 0.52.
As for TFLQPTLEVSLL, the figure is -0.612 ± 0.48; as for YMSIHSKAGMVSLDLKCLCT, -0.427 ± 1.
As for SASQDATPHGCGIGISLNTR, the figure is 2.79 ± 0.068; as for GVYWILFIAWLRKVRWYSDV, -0.144 ± 0.32; as for APVLSDN, -0.07 ± 0.49.
In turn, QYYRN yielded an amyloid nucleation score of 1.51 ± 0.58.
As for GSPLLVNDQSDGMYTSEISF, the figure is -1.32 ± 1.1; as for VTKILCSRTWGKSG, 0.325 ± 0.44.
As for MSFVDEYCGGEVTISEPSMS, the figure is -0.545 ± 0.76; as for SLFVITYRPAYSSDFILNGG, 0.763 ± 0.43; as for KSPPFMGSAERVSRRNGRGL, -0.417 ± 0.36.
The result for LSCWAYHVSWGWWHYIFAW reads 1.11 ± 0.38.
For the substance IVCLYKKCLLCGLHLVVSIV, the amyloid nucleation score is -0.608 ± 0.53.
The result for SIFVTYSLRTYINYK reads 5.95 ± 0.062.
The result for IGCGARLEGKMMACMSRDRQ reads 0.461 ± 0.64; that for HRDKLKVSPQITRSSFRRLS, 0.423 ± 0.26.
The substance IVNLARLKCSMCRECCGRVL yielded an amyloid nucleation score of 2.64 ± 0.12.
As for HCVMLHGGSPRHLNRRTDIC, the figure is 0.292 ± 0.27; as for FGNALA, -1.15 ± 0.61; as for ARVNYLRTCKYASRNSFHRS, -0.913 ± 0.45.
As for VKNFYNSSINGLGLYMNMRF, the figure is 2.43 ± 0.068; as for CIFPPYVWYGIVMVYASMYG, 6.602 ± 0.039.
As for NFACVFHGVDFYRTDSSCRK, the figure is 5.17 ± 0.072; as for ILLQLSIKRSVASSWLHNGR, 3.61 ± 0.046; as for VTSGGLEWSRD, 3.11 ± 0.05.
With YNLFYELNLVLIP, the amyloid nucleation score came to 6.137 ± 0.05.
The result for RTEEQ reads -0.254 ± 0.54; that for RSNFIQDSLSYFDILAIRRG, “inactive”.
In the case of VYKMIVSRVHC, the amyloid nucleation score was -1.17 ± 1.
The result for DFTRYYFYIPHRRVHTVH reads -0.763 ± 0.4; that for VVRHSLKRL, -0.228 ± 1.1.
The substance RVVQKKQLIV returned an amyloid nucleation score of 0.3 ± 0.49.
The result for AVLLTMWYLNICTHIWVQTL reads 0.139 ± 0.33; that for YADLISSWVILGWFQRKTLF, 0.228 ± 1; that for HGYHSGTLIALYVDN, “inactive”.
As for VLVSLFLPLENYFG, the figure is -0.549 ± 1.
MCPDKARGTMVCTERTPRLM yielded an amyloid nucleation score of 0.793 ± 0.15.
As for VSMIVGSDNVPVSFETDVSV, the figure is 1.01 ± 0.39.
